*1 amine or outer side, *2 acyl side, *3 side chain or, on linkers, in order; H or OH if unused. Where no end group is shown, it is not given here. [ ]: non-standard residue; d: D form. Sac = acetylated serine, O-acetyl-L-serine, CC(=O)OC[C@H](N[*:1])C(=O)[*:2]

Experiment [1] has as its target T1, human COX2 (cyclooxygenase 2) protein with acetylated S565 residue (human, UniProt P35354 18-604, acetylated serine at S565).
T1 construct: Endogenous protein in RIPA lysates of human microglia and human PBMCs, and in human brain tissue sections; also called S565 acetylated COX2 protein; acetylated COX2 protein
T1 sequence: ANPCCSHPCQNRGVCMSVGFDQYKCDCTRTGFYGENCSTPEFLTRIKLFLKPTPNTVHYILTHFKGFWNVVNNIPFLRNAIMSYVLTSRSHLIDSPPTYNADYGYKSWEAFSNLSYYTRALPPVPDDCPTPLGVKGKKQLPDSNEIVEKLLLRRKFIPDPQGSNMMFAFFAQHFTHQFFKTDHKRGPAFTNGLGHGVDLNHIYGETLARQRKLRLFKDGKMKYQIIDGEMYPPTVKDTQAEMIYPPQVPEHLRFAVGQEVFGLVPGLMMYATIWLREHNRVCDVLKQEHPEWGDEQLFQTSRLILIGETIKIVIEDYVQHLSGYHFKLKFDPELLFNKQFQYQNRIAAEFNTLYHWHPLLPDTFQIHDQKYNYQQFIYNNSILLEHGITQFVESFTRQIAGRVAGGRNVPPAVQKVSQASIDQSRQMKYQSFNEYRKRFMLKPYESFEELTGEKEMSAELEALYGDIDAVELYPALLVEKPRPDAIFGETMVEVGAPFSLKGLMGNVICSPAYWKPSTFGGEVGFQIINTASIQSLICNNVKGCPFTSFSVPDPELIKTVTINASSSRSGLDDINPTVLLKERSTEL
Briefly: sandwich ELISA on human PBMC lysates, plate coated with 44C7C8. Here is the method:
The sample preparation was performed according to the following procedure. After collecting mouse and human blood, the blood was transferred to a heparin tube and reacted for 30 minutes. The reacted blood was placed on the same amount of Histopaque (sigma, 10771) and centrifuged (400 g, 30 minutes). After centrifugation, a middle PBMC layer was separated and washed. After washing, the PBMCs were lysed by adding an RIPA solution (Cell signaling, 9806S), and then the cell lysate was centrifuged (13,000×g, 10 minutes) to obtain a supernatant, and then the amount of protein was quantified and ELISA assay was performed using 100 μg/ml of protein.
After the plate was washed with PBS/Tween, 300 μl/well of a blocking solution was applied at RT for 1 hour. 50 μl of a PBMC sample (100 μg/ml) was treated and incubated at RT for 2 hours. […] After the final washing, the detection was performed with TMB (3-3′,5,5′-tetramethylbenzidine) ([…] substrate for HRP) and the plate was read at 405 nm using an ELISA plate reader. A standard curve was obtained by step-diluting the peptide (500 μg/ml) of SEQ ID NO: 3 or SEQ ID NO: 4, and the amount of COX2 protein acetylated in S565 residue was calculated by substituting an optical density (O.D.) value obtained from the sample to the Standard curve.
In general terms: ELISA stands for enzyme-linked immunosorbent assay.

Experiment [2] deals with T2, acetylated peptide GCPFTSacFSVPD (SEQ ID NO: 4) including acetylated S565 residue of COX2 (human).
T2 peptide: GCPFT[Sac]FSVPD
Description: ELISA, plate coated with antibody, peptide captured, biotinylated COX2 antibody detection.

For experiment [3], the target named is T1, human COX2 (cyclooxygenase 2) protein …. Briefly: sandwich ELISA on human microglia lysates, plate coated with 9F7-2.
Experiment [4] has as its target T3, acetylated peptide PFTSacFSVPDPELI (SEQ ID NO: 3) including acetylated S565 residue of COX2 (human).
T3 peptide: PFT[Sac]FSVPDPELI
Briefly: ELISA, 96-well plate coated with 9F7-2, peptide captured, biotinylated COX2 antibody detection.

B1: monoclonal antibody 44C7C8 (antibody, V domains shown)
VH: DVQLQESGPGLVKPSQSLSLTCSVTGYSITSGYYWNWIRQFPGNKLEWMGYISYDGSNNYNPSLKNRISITRDTYKKQFFLKLNSVTTEDTATYYCARGADYYGNTYFYFDVWGAGTTVTVSS
VL: DIVMSQSPSSLAVSVEEKVNMSCKSSQSLLYSRNQKNYLAWYQQKPGQSPKLLIYWASTRESGVPDRFTGSGAGTDFTLTISSVKAEDLAVYYCQQYYTYPFTFGSGTKLEIK
notes: the isotype and constant regions are not; The methods call it 44C7F5 or 44C75F and the results call it 44C7C8; also called 44C7F5; 44C75F
Turning to B1, the binding result in experiment [1] and in experiment [2] was “binds” in each case.

B2: monoclonal antibody 9F7-2 (antibody, V domains shown)
VH: QVQLQQSGAELVRPGTSVKISCKASGYTFTDYLLGWVKQRPGHGLEWIGDIYPGGTYIKYNEKFKGKATLTADTSSSTAYMQLSSLTSEDSAVYFCARGRNDEKGDYWGQGTSVTVSS
VL: DVLMTQTPLSLPVSLGDQASISCRSSQSIVHRNGFTYLEWYLQKPGQSPKLLIYQVSNRFSGVPDRFSGSGSGTDFTLKISRVEAEDLGVYYCFQGSHVPPTFGGGTKLEIK
notes: Clones were screened for IgG expression; the isotype and constant regions are not
As for B2, the binding result in experiment [3] and in experiment [4] was “binds” in each case.

Source of the values: patent publication US20230125690A1 (KYUNGPOOK NATIONAL UNIVERSITY INDUSTRY ACADEMIC COOPERATION …, published 2023).
